Common to all, as to settings: both partners purified
Experiment [1] concerns the target T1, GST-β1 (glutathione S-transferase fused β1 subunit of AP-1) (human, UniProt Q10567 1-949).
T1 construct: cloned in pGEX-6P-1; also called GST-β1 (AP-1); GST-fused β1 subunit of AP-1; source: E. coli, purified (Glutathione Sepharose 4B)
T1 sequence (looked up): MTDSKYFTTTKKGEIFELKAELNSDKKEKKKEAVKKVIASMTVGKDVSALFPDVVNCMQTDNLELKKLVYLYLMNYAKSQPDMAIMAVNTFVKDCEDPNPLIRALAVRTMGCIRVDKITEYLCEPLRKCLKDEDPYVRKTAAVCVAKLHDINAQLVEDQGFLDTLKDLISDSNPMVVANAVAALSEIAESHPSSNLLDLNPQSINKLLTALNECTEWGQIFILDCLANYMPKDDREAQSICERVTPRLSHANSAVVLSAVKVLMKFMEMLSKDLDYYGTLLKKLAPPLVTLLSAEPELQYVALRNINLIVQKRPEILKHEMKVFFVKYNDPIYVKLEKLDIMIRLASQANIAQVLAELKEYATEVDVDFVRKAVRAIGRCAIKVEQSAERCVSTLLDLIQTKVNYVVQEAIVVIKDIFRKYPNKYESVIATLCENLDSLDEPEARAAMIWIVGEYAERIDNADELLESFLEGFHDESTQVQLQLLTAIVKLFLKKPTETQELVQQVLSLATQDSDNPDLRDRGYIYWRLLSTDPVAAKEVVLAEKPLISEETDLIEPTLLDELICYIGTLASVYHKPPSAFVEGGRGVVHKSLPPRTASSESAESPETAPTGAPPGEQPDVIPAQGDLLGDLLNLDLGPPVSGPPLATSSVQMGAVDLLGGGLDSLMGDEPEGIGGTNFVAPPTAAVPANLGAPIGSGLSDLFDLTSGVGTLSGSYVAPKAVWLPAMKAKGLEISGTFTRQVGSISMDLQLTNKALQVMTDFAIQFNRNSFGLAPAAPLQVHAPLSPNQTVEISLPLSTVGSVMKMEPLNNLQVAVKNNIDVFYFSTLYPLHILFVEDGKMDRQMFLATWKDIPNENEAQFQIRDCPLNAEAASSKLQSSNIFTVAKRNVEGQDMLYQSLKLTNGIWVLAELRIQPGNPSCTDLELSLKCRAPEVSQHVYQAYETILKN
The experiment is described as follows: pull-down; Factor Xa cleaved MBP-LZTFL1 incubated with GST-fused β1 subunit of AP-1 held on Glutathione Sepharose 4B.

For experiment [2], the target named is T1, GST-β1 (glutathione S-transferase fused …). The experiment is described as follows: pull-down; MBP-fused proteins held on amylose resin, purified GST-fused proteins added, overnight at 4°C; blots with anti-MBP and anti-GST.
Experiment [3] deals with T2, GST-β2 (GST-fused β2 subunit of AP-2) (human, UniProt P63010 1-937).
T2 construct: cloned in pGEX-6P-1; also called GST-β2 (AP-2); AP2B1; source: E. coli, purified (Glutathione Sepharose 4B)
T2 sequence (looked up): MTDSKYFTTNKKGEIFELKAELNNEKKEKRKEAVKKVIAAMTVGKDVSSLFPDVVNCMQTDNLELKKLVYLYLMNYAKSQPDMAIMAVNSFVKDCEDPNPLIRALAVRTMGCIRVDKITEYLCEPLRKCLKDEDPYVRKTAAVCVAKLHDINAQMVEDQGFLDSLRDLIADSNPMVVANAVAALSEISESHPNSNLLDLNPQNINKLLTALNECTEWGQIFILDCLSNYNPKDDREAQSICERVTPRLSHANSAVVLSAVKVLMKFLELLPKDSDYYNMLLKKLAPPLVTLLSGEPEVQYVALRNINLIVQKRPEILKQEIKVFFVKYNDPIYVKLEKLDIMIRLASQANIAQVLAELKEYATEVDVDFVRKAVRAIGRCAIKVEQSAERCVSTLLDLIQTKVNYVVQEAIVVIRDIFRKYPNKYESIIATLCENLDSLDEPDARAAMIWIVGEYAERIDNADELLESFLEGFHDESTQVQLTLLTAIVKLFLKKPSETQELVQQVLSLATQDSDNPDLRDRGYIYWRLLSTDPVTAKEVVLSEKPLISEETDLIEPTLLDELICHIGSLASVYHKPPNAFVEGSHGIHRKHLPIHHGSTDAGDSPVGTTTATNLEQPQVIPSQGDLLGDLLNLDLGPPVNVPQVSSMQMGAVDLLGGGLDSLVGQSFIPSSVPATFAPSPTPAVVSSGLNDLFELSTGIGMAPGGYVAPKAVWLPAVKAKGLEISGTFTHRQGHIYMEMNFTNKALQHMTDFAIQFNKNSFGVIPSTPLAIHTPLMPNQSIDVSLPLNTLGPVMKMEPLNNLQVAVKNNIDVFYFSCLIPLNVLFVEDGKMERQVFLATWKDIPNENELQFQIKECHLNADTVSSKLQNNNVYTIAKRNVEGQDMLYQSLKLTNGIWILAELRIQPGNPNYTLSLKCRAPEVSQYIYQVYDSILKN
The experiment is described as above.

The values below come from article PMC6939906, “Leucine zipper transcription factor-like 1 binds adaptor protein complex-1 and 2 and participates in trafficking of transferrin receptor 1” (PLoS ONE, 2020).

B1: LZTFL1 from purified MBP-LZTFL1 cleaved by Factor Xa (natural protein, human, UniProt Q9NQ48-1 1-299, looked up)
chain: MAELGLNEHHQNEVINYMRFARSKRGLRLKTVDSCFQDLKESRLVEDTFTIDEVSEVLNGLQAVVHSEVESELINTAYTNVLLLRQLFAQAEKWYLKLQTDISELENRELLEQVAEFEKAEITSSNKKPILDVTKPKLAPLNEGGTAELLNKEILRLQEENEKLKSRLKTIEIQATNALDEKSKLEKALQDLQLDQGNQKDFIKAQDLSNLENTVAALKSEFQKTLNDKTENQKSLEENLATAKHDLLRVQEQLHMAEKELEKKFQQTAAYRNMKEILTKKNDQIKDLRKRLAQYEPED
notes: human LZTFL1, wild type; also called Factor Xa cleaved MBP-LZTFL1; source: E. coli, purified as MBP fusion (amylose resin), cleaved with Factor Xa
Take B1: in experiment [1], the binding result is on record as “binds”.

B2: MBP-LZTFL1 (maltose-binding protein fused with human LZTFL1) (natural protein, UniProt Q9NQ48-1 1-299, looked up)
chain: MAELGLNEHHQNEVINYMRFARSKRGLRLKTVDSCFQDLKESRLVEDTFTIDEVSEVLNGLQAVVHSEVESELINTAYTNVLLLRQLFAQAEKWYLKLQTDISELENRELLEQVAEFEKAEITSSNKKPILDVTKPKLAPLNEGGTAELLNKEILRLQEENEKLKSRLKTIEIQATNALDEKSKLEKALQDLQLDQGNQKDFIKAQDLSNLENTVAALKSEFQKTLNDKTENQKSLEENLATAKHDLLRVQEQLHMAEKELEKKFQQTAAYRNMKEILTKKNDQIKDLRKRLAQYEPED
notes: human LZTFL1, wild type; cloned in pMAL-c2X; also called MBP-fused LZTFL1; wild-type LZTFL1; source: E. coli, purified (amylose resin)
As to B2, the binding result in experiment [2] and in experiment [3] was “binds” throughout.
